{
  "source": "paper PMC2173958",
  "molecules": {"B1": {"name": "Cdc31p (natural protein)", "chain": "MSKNRSSLQSGPLNSELLEEQKQEIYEAFSLFDMNNDGFLDYHELKVAMKALGFELPKREILDLIDEYDSEGRHLMKYDDFYIVMGEKILKRDPLDEIKRAFQLFDDDHTGKISIKNLRRVAKELGETLTDEELRAMIEEFDLDGDGEINENEFIAICTDS"}},
  "key": {"[1]": {"biological_target": "GST fusion 2b of Sfi1p (246–281) (S. cerevisiae) (UniProt Q12369)", "sequence (Q12369 whole entry)": "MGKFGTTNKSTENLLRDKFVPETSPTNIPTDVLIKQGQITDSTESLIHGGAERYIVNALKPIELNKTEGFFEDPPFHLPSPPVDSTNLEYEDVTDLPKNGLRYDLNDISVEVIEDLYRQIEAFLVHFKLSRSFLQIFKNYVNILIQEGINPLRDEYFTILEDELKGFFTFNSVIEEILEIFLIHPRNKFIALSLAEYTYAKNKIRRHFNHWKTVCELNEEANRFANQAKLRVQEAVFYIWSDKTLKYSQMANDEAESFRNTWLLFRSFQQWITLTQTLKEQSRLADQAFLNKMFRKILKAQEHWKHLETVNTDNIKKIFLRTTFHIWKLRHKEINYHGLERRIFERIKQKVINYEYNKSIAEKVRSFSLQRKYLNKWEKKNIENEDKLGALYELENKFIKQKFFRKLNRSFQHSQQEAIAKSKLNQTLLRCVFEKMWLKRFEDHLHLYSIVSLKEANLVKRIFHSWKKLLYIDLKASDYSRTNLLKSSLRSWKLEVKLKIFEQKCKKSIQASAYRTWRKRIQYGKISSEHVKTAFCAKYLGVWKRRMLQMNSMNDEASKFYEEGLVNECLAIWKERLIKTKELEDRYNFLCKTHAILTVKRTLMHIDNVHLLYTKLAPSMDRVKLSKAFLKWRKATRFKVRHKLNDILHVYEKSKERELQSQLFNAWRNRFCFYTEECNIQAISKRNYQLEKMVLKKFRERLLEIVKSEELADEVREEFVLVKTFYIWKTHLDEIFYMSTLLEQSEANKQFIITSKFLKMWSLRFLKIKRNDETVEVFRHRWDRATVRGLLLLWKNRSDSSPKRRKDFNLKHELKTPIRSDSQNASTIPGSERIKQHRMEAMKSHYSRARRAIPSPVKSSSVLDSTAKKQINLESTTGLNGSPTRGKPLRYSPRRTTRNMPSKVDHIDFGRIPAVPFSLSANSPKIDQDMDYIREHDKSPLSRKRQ", "assay": "pull-down"}, "[2]": {"biological_target": "GST fusion 4a of Sfi1p (643–677) (S. cerevisiae) (UniProt Q12369)", "assay": "pull-down"}, "[3]": {"biological_target": "GST fusion 2c of Sfi1p (279–386) (S. cerevisiae) (UniProt Q12369)", "assay": "pull-down"}, "[4]": {"biological_target": "GST fusion 4b of Sfi1p (676–710) (S. cerevisiae) (UniProt Q12369)", "assay": "pull-down"}, "[5]": {"biological_target": "GST fusion 3a of Sfi1p (451–474) (S. cerevisiae) (UniProt Q12369)", "assay": "pull-down"}, "[6]": {"biological_target": "Sfi1p-prA (S. cerevisiae) (UniProt Q12369)", "assay": "affinity purification with mass spectrometry"}},
  "data": [
    {"molecule": "recombinant Cdc31p (from UniProt P06704 2-161) (natural protein)", "values": [
      {"measurement": "stoichiometry N", "setting": "[1]", "value": "< 1.1"},
      {"measurement": "stoichiometry N", "setting": "[2]", "value": "< 1.1"},
      {"measurement": "molar ratio of Cdc31p to fusion (gel scan, not at saturation)", "setting": "[3]", "value": 1.1},
      {"measurement": "stoichiometry N", "setting": "[4]", "value": "< 1.1"},
      {"measurement": "stoichiometry N", "setting": "[5]", "value": "< 1.1"}
    ]},
    {"molecule": "B1", "values": [
      {"measurement": "molar ratio of Cdc31p to Sfi1p-prA (inspection of Coomassie-stained bands)", "setting": "[6]", "value": "> 1"}
    ]}
  ]
}
